Measurements as given in article PMC2801285.

Molecular target: CaV2.1 (full-length) (UniProt P54282)

Row | inhibition of peak IBa (CaV2.1/α2δ-2/β4) on co-expression in Xenopus oocytes | reduction of peak IBa (CaV2.1/α2δ-2/β4) on co-expression in Xenopus oocytes | Substance
1 | 37.9 % inhibition | – | CaV2.1 N terminus (residues 1–100) (from UniProt P54282 1-100) (domain or fragment)
2 | – | 43.8 % reduction | CaV2.1 N terminus-CAAX (from UniProt P54282 1-100) (domain or fragment)
